Where a chain is given by its changes, count along the chain named. In names and notes the source's numbering stands.
B1: ZmPPO1 WT: Amino-acid sequence of PPO1 from wild-type corn (protein)
chain: MVAATATATAMATAASPLLNGTRIPARLRHRGLSVRCAAVAGGAAEAPASTGARLSADCVVVGGGISGLCTAQALATRHGVGDVLVTEARARPGGNITTVERPEEGYLWEEGPNSFQPSDPVLTMAVDSGLKDDLVFGDPNAPRFVLWEGKLRPVPSKPADLPFFDLMSIPGKLRAGLGALGIRPPPPGREESVEEFVRRNLGAEVFERLIEPFCSGVYAGDPSKLSMKAAFGKVWRLEETGGSIIGGTIKTIQERSKNPKPPRDARLPKPKGQTVASFRKGLAMLPNAITSSLGSKVKLLWKLTSITKSDDKGYVLEYETPEGVVSVQAKSVIMTIPSYVASNILRPLSSDAADALSRFYYPPVAAVTVSYPKEAIRKECLIDGELQGFGQLHPRSQGVETLGTIYSSSLFPNRAPDGRVLLLNYIGGATNTGIVSKTESELVEAVDRDLRKMLINSTAVDPLVLGVRVWPQAIPQFLVGHLDLLEAAKAALDRGGYDGLFLGGNYVAGVALGRCVEGAYESASQISDFLTKYAYK
modifications: Amino-acid sequence of PPO1 from wild-type corn (ZmPPO1 WT)
B2: ZmPPO1 L424W/Y426L: Amino-acid sequence of PPO1 from corn mutant (protein)
chain: B1 chain with L424W, Y426L
modifications: Amino-acid sequence of PPO1 from corn mutant (ZmPPO1 L424W/Y426L)
B3: GmPPO1 WT: Amino-acid sequence of PPO1 from wild-type soybean (protein)
chain: MVSVFNEILFPPNQTLLRPSLHSPTSFFTSPTRKFPRSRPNPILRCSIAEESTASPPKTRDSAPVDCVVVGGGVSGLCIAQALATKHANANVVVTEARDRVGGNITTMERDGYLWEEGPNSFQPSDPMLTMVVDSGLKDELVLGDPDAPRFVLWNRKLRPVPGKLTDLPFFDLMSIGGKIRAGFGALGIRPPPPGHEESVEEFVRRNLGDEVFERLIEPFCSGVYAGDPSKLSMKAAFGKVWKLEKNGGSIIGGTFKAIQERNGASKPPRDPRLPKPKGQTVGSFRKGLTMLPDAISARLGNKVKLSWKLSSISKLDSGEYSLTYETPEGVVSLQCKTVVLTIPSYVASTLLRPLSAAAADALSKFYYPPVAAVSISYPKEAIRSECLIDGELKGFGQLHPRSQGVETLGTIYSSSLFPNRAPPGRVLLLNYIGGATNTGILSKTDSELVETVDRDLRKILINPNAQDPFVVGVRLWPQAIPQFLVGHLDLLDVAKASIRNTGFEGLFLGGNYVSGVALGRCVEGAYEVAAEVNDFLTNRVYK
modifications: Amino-acid sequence of PPO1 from wild-type soybean (GmPPO1)
B4: GmPPO1 L430S/Y432I: Amino-acid sequence of PPO1 from soybean mutant (protein)
chain: B3 chain with L430S, Y432I
modifications: Amino-acid sequence of PPO1 from soybean mutant (GmPPO1 L430S/Y432I)
B5: BnPPO1-C5 WT: Amino-acid sequence of PPO1 wild-type from oilseed rape (protein)
chain: MDLSLLRPQPFLSPFSNPFPRSRPYKPPNLRCSVSGGSVVGGSSTIEGGRGGKTVAADCVIVGGGISGLCIAQALVTKHPDAAKSVMVTEAKDRVGGNIITREEQGFLWEEGPNSFQPSDPMLTMVVDSGLKDDLVLGDPTAPRFVLWNGKLRPVPSKLTDLPFFDLMSIGGKIRAGFGAIGIRPSPPGREESVEEFVRRNLGDEVFERLIEPFCSGVYAGDPAKLSMKAAFGKVWKLEENGGSIIGGAFKAIQARNKAPKTTRDPRLPKPKGQTVGSFRKGLTMLPDAISARLGDKVKVSWKLSSISKLPSGGYSLTYETPEGIVTVQSKSVVMTVPSHVASSLLRPLSDSAAEALSKLYYPPVAAVSISYPKEAIRSECLIDGELKGFGQLHPRTQKVETLGTIYSSSLFPNRAPPGRVLLLNYIGGATNTGILSKSEGELVEAVDRDLRKMLIKPSSTDPLVLGVKVWPQAIPQFLIGHIDLVDAAKASLSSSGHEGLFLGGNYVAGVALGRCVEGAYETATQVNDFMSRYAYK
modifications: Amino-acid sequence of PPO1 wild-type from oilseed rape (BnPPO1-C5)
B6: BnPPO1-C5 L424S/Y426I: Amino-acid sequence of PPO1 from oilseed rape mutant (protein)
chain: B5 chain with L424S, Y426I
modifications: Amino-acid sequence of PPO1 from oilseed rape mutant (BnPPO1-C5 L424S/Y426I)
B7: L424T/Y426V (protein)
chain: B1 chain with L424T, Y426V
modifications: Amino-acid sequence of PPO1 from corn mutant (ZmPPO1 L424T/Y426V)
B8: L424S/Y426V (protein)
chain: B1 chain with L424S, Y426V
modifications: Amino-acid sequence of PPO1 form corn mutant (ZmPPO1 L424S/Y426V)
B9: L424V/Y426L (protein)
chain: B1 chain with L424V, Y426L
modifications: Amino-acid sequence of PPO1 from corn mutant (ZmPPO1 L424V/Y426L)

system: Arabidopsis thaliana; test: Herbicide resistance test of Arabidopsis thaliana seeds overexpressing crop PPO1 WT or mutant on MS medium; format: in vivo; settings: overexpressed in Arabidopsis thaliana seed, different concentrations of compound A
Description: 1) Sowing: plump and vernalized wild-type Arabidopsis thaliana seeds were selected, treated with 75% alcohol for 1 minute, disinfected with 10% NaClO for 6 minutes, and washed with sterile water for 5 to 6 times. After the sterilization was completed, the seeds were placed on a MS medium plate for one week, then transplanted to sterilized nutrient soil (nutrient soil:vermiculite=1:1) and cultured in a greenhouse at (25±2) ° C. with a photoperiod of 16 h/8 h (light/dark).
4) Infestation of Arabidopsis thaliana inflorescences: the uninfected Arabidopsis thaliana with good growth state and lush inflorescences were selected for infection and their fruit pods were cut off from the plants by scissors prior to transformation. The Arabidopsis thaliana inflorescences were dipped in the prepared infection solution for 0.5 to 1 minute. Then the infected Arabidopsis thaliana seedlings were placed in dark and humid conditions for 24 hours. After one week, the infection was repeated.
After the transformation of dipped Arabidopsis thaliana inflorescences, Arabidopsis thaliana TO-generation seeds were collected and sowed on a resistant MS plate containing 30 mg/L hygromycin to screen positive plants.
The obtained overexpressed mutant and wild-type Arabidopsis thaliana seeds of different crops were tested for resistance on a MS medium (petri dish) containing different concentrations of PPO-inhibiting herbicidal compounds, as shown in FIG. 12-23.

Molecule	tolerance to compound A compared with wild-type Arabidopsis thaliana	tolerance to compound A compared with the overexpressed wild-type PPO1
B1	certain level of tolerance	
B2	certain level of tolerance	much higher
B3	certain level of tolerance	
B4	certain level of tolerance	much higher
B5	certain level of tolerance	
B6	certain level of tolerance	much higher

same assay, conditions: overexpressed in Arabidopsis thaliana seed, different concentrations of flumioxazin

Molecule	tolerance to flumioxazin compared with wild-type Arabidopsis thaliana	tolerance to flumioxazin compared with the overexpressed wild-type PPO1
B1	certain level of tolerance	
B2	certain level of tolerance	much higher
B3	certain level of tolerance	
B4	certain level of tolerance	much higher
B5	certain level of tolerance	
B6	certain level of tolerance	much higher

same assay, conditions: overexpressed in Arabidopsis thaliana seed, different concentrations of saflufenacil

Molecule	tolerance to saflufenacil compared with wild-type Arabidopsis thaliana	tolerance to saflufenacil compared with the overexpressed wild-type PPO1
B1	certain level of tolerance	
B2	certain level of tolerance	much higher
B3	certain level of tolerance	
B4	certain level of tolerance	much higher
B5	certain level of tolerance	
B6	certain level of tolerance	much higher

system: PPO-deficient Escherichia coli (ΔhemG); test: PPO-deficient E. coli (ΔhemG) transformed by corn ZmPPO1 mutant genes, growth on LB medium containing compound A; format: cell-based; settings: compound A 5 μM
Description: To verify whether the mutation of the PPO1-conserved protein motif LLLNYI in other plants could also confer resistance to herbicides, the mutation combination of leucine residues at the third position and tyrosine residues at the fifth position in the protein motif LLLNYI was carried out by using the same method as described in the above examples and screened by using of the LB medium containing herbicidal compound A, and the growth inhibition was observed.

Molecule	growth of ΔhemG transformant on plates containing compound A, compared with ZmPPO1-WT
B7	grew normally without an inhibition
B8	grew normally without an inhibition
B2	grew normally without an inhibition
B9	grew normally without an inhibition
